From publication PMC7555870, “Isolation, Evaluation, and Identification of Angiotensin I-Converting Enzyme Inhibitory Peptides from Game Meat” (Foods, 2020)
Like-named read-outs stand apart in the source and are kept apart here. Marks after values point to notes of the source that are not given here. Each block holds one molecule with its values, some of them ahead of it. Where no end group is shown, it is not given here. [ ]: non-standard residue; d: D form.

Tests used:
[1] = biological target: T1, ACE, a dipeptidyl carboxypeptidase (EC 3.4.15.1) extracted from rabbit lung (Oryctolagus cuniculus, UniProt P12822); experiment: ACE inhibitory activity assay, modified Cheung method (96-well plate, HHL, OPA fluorescence); type: biochemical; details: synthesized peptides identified from digested venison; mean ± SD of three repeated experiments; ND = not detectable
T1 construct: extracted from rabbit lung; purchased Sigma Chemical Co. (St. Louis, MO, USA); host or cells: rabbit lung tissue
T1 sequence (P12822 34-1310): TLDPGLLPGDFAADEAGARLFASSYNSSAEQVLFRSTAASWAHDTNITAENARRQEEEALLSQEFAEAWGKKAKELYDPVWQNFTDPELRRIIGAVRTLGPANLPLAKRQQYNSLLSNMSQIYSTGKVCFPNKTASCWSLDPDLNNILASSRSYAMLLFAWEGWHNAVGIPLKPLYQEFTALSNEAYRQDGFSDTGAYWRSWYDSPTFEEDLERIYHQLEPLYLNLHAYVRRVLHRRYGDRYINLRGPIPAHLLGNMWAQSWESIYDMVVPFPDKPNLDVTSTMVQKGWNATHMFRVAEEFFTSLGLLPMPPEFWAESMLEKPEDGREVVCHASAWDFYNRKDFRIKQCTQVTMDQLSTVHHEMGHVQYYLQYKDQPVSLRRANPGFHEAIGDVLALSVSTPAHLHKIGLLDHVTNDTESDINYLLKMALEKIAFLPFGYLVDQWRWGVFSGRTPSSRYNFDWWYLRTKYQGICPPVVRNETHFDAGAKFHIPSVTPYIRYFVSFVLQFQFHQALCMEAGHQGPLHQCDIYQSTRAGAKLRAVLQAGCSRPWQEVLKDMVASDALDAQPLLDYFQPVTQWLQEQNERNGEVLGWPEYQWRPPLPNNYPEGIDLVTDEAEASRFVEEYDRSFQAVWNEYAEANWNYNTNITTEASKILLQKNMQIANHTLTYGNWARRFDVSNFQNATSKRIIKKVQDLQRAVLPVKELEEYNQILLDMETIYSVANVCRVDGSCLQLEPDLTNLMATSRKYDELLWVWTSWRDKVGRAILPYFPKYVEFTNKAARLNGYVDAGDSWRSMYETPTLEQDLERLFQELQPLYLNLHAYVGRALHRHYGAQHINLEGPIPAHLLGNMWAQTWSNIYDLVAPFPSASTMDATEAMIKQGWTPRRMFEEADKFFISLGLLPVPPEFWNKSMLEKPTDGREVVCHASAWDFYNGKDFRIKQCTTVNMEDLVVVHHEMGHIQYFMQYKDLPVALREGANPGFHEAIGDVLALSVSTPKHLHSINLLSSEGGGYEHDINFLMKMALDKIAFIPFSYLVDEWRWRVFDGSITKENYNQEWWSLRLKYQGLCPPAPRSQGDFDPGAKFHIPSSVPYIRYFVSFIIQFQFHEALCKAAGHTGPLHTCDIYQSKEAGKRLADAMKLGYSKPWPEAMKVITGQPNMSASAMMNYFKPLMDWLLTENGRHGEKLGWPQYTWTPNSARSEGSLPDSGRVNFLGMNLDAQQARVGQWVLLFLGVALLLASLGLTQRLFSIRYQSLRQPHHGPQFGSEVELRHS
Experimental: The digested samples were centrifuged at 10,000× g for 15 min, and the supernatants were subjected to an ACE inhibitory assay. ACE inhibitory activity was measured using a previously reported method. ACE, a dipeptidyl carboxypeptidase (EC 3.4.15.1) extracted from rabbit lung, was obtained from Sigma Chemical Co. (St. Louis, MO, USA). Hippuryl-L-histidyl-L-leucine (HHL) (Nacalai Tesque) was used as the synthetic substrate. A 40 µL aliquot of each sample solution was added to 100 µL of borate buffer (containing 0.3 M NaCl, 5 mM HHL, pH 8.3) and incubated at 37 °C for 3 min. Then, 20 µL ACE solution (0.1 U mL^−1) was added to each sample solution, and the reaction mixture was incubated at 37 °C for 30 min. After that, the reaction was terminated using 250 µL of 1 M HCl, and hippuric acid was extracted by adding 1.5 mL of ethyl acetate and shaking. Eventually, mixtures were centrifuged at 1750× g for 10 min, 1 mL of supernatant was transferred into a test tube, and ethyl acetate was eliminated by heat evaporation at 95 °C. The precipitate was re-dissolved in 2 mL of deionized water and measured spectrophotometrically at 228 nm, using a UV-1800 spectrophotometer (Shimadzu, Kyoto, Japan). For the analysis of samples fractionated by reversed-phase chromatography, the synthetic peptides were assayed using the modified method reported by Cheung, et al.. Briefly, 50 µL of sample solution, 100 µL of the ACE 0.01 U/mL, and 20 µL of 25 mM HHL were mixed in a 96-well plate and incubated at 37 °C for 40 min. Subsequently, 100 µL of 1 M NaOH, 10 µL 0.2% OPA, and 15 µL 3.6 M phosphoric acid were added, and the fluorescence of samples was measured using the plate-reader POWERSCAN MX (DS Pharma Biomedical Co., Ltd., Osaka, Japan) at an excitation wavelength of 360 nm and emission wavelength of 460 nm. The inhibitory activity (%) was calculated as follows: inhibitory activity (%) = ((Ac – As)/(Ac – Ab)) × 100. Ac is the intensity of the control, as is the intensity of the sample, and Ab is the intensity of the blank. Data are expressed as the 50% inhibitory concentration (IC50) for each sample.

[2] = tested on: ACE; details: previously reported peptides; cited from earlier work
Excerpt: The potent ACE inhibitory peptides are generally short chains of 3–6 amino acids, with a Ser, Leu, or Thr at the C-terminal, which plays an important role in this activity. The ACE inhibitory peptides identified in this study, except for IKEVTER, seem to be of a larger size than those of inhibitory peptides described in previous reports. ACE inhibitory peptides have been previously reported from meat and seafood vertebrate specimens, and their IC50 values have been reported.

[3] = biological target: T2, angiotensin I-converting enzyme (ACE), a dipeptidyl carboxypeptidase (EC 3.4.15.1) extracted from rabbit lung (rabbit) (UniProt P12822)
T2 sequence: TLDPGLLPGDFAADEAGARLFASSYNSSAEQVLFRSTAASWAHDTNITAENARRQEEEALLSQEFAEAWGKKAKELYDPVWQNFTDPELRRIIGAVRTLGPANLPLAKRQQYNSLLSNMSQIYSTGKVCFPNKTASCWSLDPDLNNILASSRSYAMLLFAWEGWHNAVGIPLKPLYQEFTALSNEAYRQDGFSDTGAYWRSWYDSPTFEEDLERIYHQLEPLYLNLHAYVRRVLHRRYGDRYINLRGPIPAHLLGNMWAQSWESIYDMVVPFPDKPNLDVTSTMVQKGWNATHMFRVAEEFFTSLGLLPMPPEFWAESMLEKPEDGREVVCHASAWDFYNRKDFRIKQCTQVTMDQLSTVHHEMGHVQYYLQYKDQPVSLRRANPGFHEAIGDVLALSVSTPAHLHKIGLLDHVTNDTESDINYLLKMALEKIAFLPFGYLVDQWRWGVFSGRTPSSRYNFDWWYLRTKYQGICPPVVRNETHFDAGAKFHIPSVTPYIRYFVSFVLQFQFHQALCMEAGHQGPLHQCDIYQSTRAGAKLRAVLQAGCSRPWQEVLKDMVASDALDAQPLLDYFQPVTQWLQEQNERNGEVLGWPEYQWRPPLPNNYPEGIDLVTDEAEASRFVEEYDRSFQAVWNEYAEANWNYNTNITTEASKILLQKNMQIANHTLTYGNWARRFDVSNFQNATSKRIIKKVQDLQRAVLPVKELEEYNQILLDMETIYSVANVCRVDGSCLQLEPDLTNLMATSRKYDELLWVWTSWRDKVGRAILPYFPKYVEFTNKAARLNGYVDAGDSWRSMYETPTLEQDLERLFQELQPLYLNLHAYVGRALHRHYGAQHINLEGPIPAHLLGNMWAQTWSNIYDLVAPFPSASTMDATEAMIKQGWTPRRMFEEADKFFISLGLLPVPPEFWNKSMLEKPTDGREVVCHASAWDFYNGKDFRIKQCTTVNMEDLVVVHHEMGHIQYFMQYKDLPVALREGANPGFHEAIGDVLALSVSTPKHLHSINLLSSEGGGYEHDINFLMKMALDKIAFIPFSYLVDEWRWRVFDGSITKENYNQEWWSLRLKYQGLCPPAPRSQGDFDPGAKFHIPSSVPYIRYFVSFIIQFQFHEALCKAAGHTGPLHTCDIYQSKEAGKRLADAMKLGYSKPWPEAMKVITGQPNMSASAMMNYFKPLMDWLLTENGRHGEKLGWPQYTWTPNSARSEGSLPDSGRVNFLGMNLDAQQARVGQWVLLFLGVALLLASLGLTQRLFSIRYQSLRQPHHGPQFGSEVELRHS

Molecule: IKEVTER [IKEVTER, Isoleucine-Lysine- Glutamic Acid-Valine-Threonine-Glutamic Acid-Arginine]
IC50 [1]: 99 µM

Molecule: VcNYVNWIQQTIAAN (V[code c]NYVNWIQQTIAAN; not fully specified; printed as VcNYVNWIQQTIAAN) [synthesized peptide identified from digested venison; origin Tropomyosin alpha-3 chain]
Ace Inhibitory Activity (IC50) [1]: 358.64 ± 64.71 ^a μg/mL

Molecule: mQGTLEDQIISANPLLEAFGNAK ([code m]QGTLEDQIISANPLLEAFGNAK; not fully specified; printed as mQGTLEDQIISANPLLEAFGNAK) [synthesized peptide identified from digested venison; origin Myosin-1]
Ace Inhibitory Activity (IC50) [1]: 292.83 ± 38.27 ^a,b μg/mL

Molecule: GLSDGEWQ
ACE inhibition IC50 values [2]: 50.5 µg/mL

Molecule: GFHI
ACE inhibition IC50 values [2]: 117 µg/mL

Molecule: DFHING
ACE inhibition IC50 values [2]: 64.3 µg/mL

Molecule: TEAGATVTVK [TEAGATVTVK]
IC50 [1]: 214 µM

ACE inhibitory activity (IC50; hydrolysis of hippuryl-L-histidyl-L-leucine by ACE, OPA fluorescence, 37 °C) [3]: 359 µg/mL
ACE inhibitory activity (IC50; hydrolysis of hippuryl-L-histidyl-L-leucine by ACE, OPA fluorescence, 37 °C) ([3]; record 2): 293 µg/mL
ACE inhibitory activity (IC50; hydrolysis of hippuryl-L-histidyl-L-leucine by ACE, OPA fluorescence, 37 °C) ([3]; record 3): 86.5 µg/mL
ACE inhibitory activity (IC50; hydrolysis of hippuryl-L-histidyl-L-leucine by ACE, OPA fluorescence, 37 °C) ([3]; record 4): 209 µg/mL
B1: … (peptide)
peptide: TEAGATVTVK
